Paper PMC3176292, “Mutations in Protein-Binding Hot-Spots on the Hub Protein Smad3 Differentially Affect Its Protein Interactions and Smad3-Regulated Gene Expression” (PLoS ONE, 2011)
Residue numbers refer to the chain shown, from its start. Names may count otherwise.

T1: Flag-Smad4, full length (UniProt Q13485 1-552)
T1 construct: Smad4; plasmid pCMV5-Flag-Smad4 (from J. Massagué); also called Smad4 FL; source: HEK-293, transfected, in lysate
T1 sequence (looked up): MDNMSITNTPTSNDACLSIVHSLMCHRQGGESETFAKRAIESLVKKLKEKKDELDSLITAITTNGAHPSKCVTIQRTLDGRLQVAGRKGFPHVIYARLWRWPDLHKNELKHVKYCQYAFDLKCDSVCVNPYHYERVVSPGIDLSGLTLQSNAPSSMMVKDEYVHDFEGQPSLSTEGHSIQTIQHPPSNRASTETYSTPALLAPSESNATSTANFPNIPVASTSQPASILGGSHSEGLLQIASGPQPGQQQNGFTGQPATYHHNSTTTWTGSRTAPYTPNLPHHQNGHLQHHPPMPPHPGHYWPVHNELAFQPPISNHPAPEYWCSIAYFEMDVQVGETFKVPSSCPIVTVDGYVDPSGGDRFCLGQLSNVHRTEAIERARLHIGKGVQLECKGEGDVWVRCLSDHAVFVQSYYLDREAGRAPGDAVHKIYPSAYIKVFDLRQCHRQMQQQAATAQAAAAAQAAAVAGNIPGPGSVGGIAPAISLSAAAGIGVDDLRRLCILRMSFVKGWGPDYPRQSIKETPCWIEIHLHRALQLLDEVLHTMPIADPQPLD

T2: SARA Smad-binding domain (amino acids 665–721) on the 3xFlag-thioredoxin scaffold (UniProt O95405 767-823)
T2 construct: SARA, amino acids 665–721; cloned into the unique RsrII site of pCI-3xFLAG-Trx; also called SARA aa665–721; TrxSARA; source: HEK-293, transfected, in lysate
T2 sequence (looked up): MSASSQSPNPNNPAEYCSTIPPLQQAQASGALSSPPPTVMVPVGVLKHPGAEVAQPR

T3: Ski Smad-binding domain (amino acids 2–56) on the 3xFlag-thioredoxin scaffold (UniProt P12755 2-56)
T3 construct: Ski, amino acids 2–56; cloned into the unique RsrII site of pCI-3xFLAG-Trx; also called Ski aa2–56; TrxSki; source: HEK-293, transfected, in lysate
T3 sequence (looked up): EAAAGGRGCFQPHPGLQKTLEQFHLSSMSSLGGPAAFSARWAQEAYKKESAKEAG

T4: SIP1 Smad-binding domain (amino acids 315–487) on the 3xFlag-thioredoxin scaffold (UniProt Q9R0G7 315-487)
T4 construct: SIP1, amino acids 315–487; amplified from pACT2-SIP1-315-487 (from D. Huylebroeck), which I recall as a mouse clone; cloned into the RsrII site of pCI-3xFLAG-Trx; also called Sip1 315–487; TrxSIP1; source: HEK-293, transfected, in lysate
T4 sequence (looked up): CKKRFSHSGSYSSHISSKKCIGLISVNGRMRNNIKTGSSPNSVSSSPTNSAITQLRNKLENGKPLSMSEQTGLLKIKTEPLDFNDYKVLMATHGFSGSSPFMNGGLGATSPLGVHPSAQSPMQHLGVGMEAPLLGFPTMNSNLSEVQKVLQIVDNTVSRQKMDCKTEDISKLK

B1: Renilla luciferase-Smad3 C338A (natural protein, UniProt P84022 1-425, looked up)
chain: MSSILPFTPPIVKRLLGWKKGEQNGQEEKWCEKAVKSLVKKLKKTGQLDELEKAITTQNVNTKCITIPRSLDGRLQVSHRKGLPHVIYCRLWRWPDLHSHHELRAMELCEFAFNMKKDEVCVNPYHYQRVETPVLPPVLVPRHTEIPAEFPPLDDYSHSIPENTNFPAGIEPQSNIPETPPPGYLSEDGETSDHQMNHSMDAGSPNLSPNPMSPAHNNLDLQPVTYCEPAFWCSISYYELNQRVGETFHASQPSMTVDGFTDPSNSERFCLGLLSNVNRNAAVELTRRHIGRGVRLYYIGGEVFAECLSDSAIFVQSPNCNQRYGWHPATVCKIPPGANLKIFNNQEFAALLAQSVNQGFEAVYQLTRMCTIRMSFVKGWGAEYRRQTVTSTPCWIELHLNGPLQWLDKVLTQMGSPSIRCSSVS
notes: Smad3; source: HEK-293, transfected together with constitutively active Alk5, in lysate
B2: Renilla luciferase-Smad3 W406A (natural protein, UniProt P84022 1-425, looked up)
chain: B1 chain with A338C, W406A
notes: as for B1
B3: Renilla luciferase-Smad3 Y226A (natural protein, UniProt P84022 1-425, looked up)
chain: B1 chain with Y226A, A338C
notes: as for B1
B4: Renilla luciferase-Smad3 K341A (natural protein, UniProt P84022 1-425, looked up)
chain: B1 chain with A338C, K341A
notes: as for B1
B5: Renilla luciferase-Smad3 V356R (natural protein, UniProt P84022 1-425, looked up)
chain: B1 chain with A338C, V356R
notes: as for B1
B6: Renilla luciferase-Smad3 W326A (natural protein, UniProt P84022 1-425, looked up)
chain: B1 chain with W326A, A338C
notes: as for B1
B7: Renilla luciferase-Smad3 P335A/P336A (natural protein, UniProt P84022 1-425, looked up)
chain: B1 chain with P335A, P336A, A338C
notes: as for B1
B8: Renilla luciferase-Smad3 Q322A/Y324A (natural protein, UniProt P84022 1-425, looked up)
chain: B1 chain with Q322A, Y324A, A338C
notes: as for B1
B9: Renilla luciferase-Smad3 V224A (natural protein, UniProt P84022 1-425, looked up)
chain: B1 chain with V224A, A338C
notes: as for B1
B10: Renilla luciferase-Smad3 Y298A (natural protein, UniProt P84022 1-425, looked up)
chain: B1 chain with Y298A, A338C
notes: as for B1
B11: Renilla luciferase-Smad3 S254A (natural protein, UniProt P84022 1-425, looked up)
chain: B1 chain with S254A, A338C
notes: as for B1
B12: Renilla luciferase-Smad3 E267A (natural protein, UniProt P84022 1-425, looked up)
chain: B1 chain with E267A, A338C
notes: as for B1
B13: Renilla luciferase-Smad3 L340A (natural protein, UniProt P84022 1-425, looked up)
chain: B1 chain with A338C, L340A
notes: as for B1
B14: Renilla luciferase-Smad3 Y297A (natural protein, UniProt P84022 1-425, looked up)
chain: B1 chain with Y297A, A338C
notes: as for B1

Assays:
Assay in all cases: co-IP; LUMIER: Renilla luciferase-Smad3 and Flag-tagged partner co-expressed with constitutively active Alk5 in HEK-293; Flag protein captured from cleared lysate (TNE: 10 mM Tris-HCl pH 7.8, 150 mM NaCl, 1 mM EDTA, 1% Igepal CA-630) on anti-Flag 96-well plates, 2 h at 4 °C; co-precipitated Renilla luciferase activity, TrxGA background subtracted, percent of wild-type Smad3
Conditions in all cases: partners not purified
[1] = target: T5, Smurf2 Smad-binding domain (amino acids 252–330) on the Flag-thioredoxin scaffold (UniProt Q9HAU4 252-330)
T5 construct: Smurf2, amino acids 252–330; also called Smurf2 aa252–330; TrxSmurf2; source: HEK-293, transfected, in lysate

[2] = target: T1, Flag-Smad4, full length
[3] = target: T2, SARA Smad-binding domain (amino acids …)
[4] = target: T3, Ski Smad-binding domain (amino acids …)
[5] = target: T4, SIP1 Smad-binding domain (amino acids …)

T5 sequence (Q9HAU4 252-330): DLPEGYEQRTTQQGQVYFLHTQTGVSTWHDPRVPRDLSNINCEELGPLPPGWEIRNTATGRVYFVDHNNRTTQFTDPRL

Binder | percent binding relative to wild-type Smad3 [1] [%] | percent binding relative to wild-type Smad3 [2] [%] | percent binding relative to wild-type Smad3 [3] [%] | percent binding relative to wild-type Smad3 [4] [%] | percent binding relative to wild-type Smad3 [5] [%]
B1 | 153 | 125 | 94 | 188 | 44
B2 | 1330 | 109 | 1 | 5 | 15
B3 | 365 | 110 | 3 | 32 | 7
B4 | 130 | 275 | 4 | 27 | 66
B5 | 468 | 233 | 1 | 2 | 7
B6 | 653 | 194 | 4 | 292 | 319
B7 | 255 | 309 | 2 | 356 | 123
B8 | 308 | 124 | 3 | 237 | 162
B9 | 320 | 122 | 21 | 524 | 339
B10 | 144 | 120 | 73 | 271 | 33
B11 | 113 | 101 | 103 | 10 | 128
B12 | 379 | 458 | 81 | 1150 | 88
B13 | 259 | 181 | 12 | 194 | 159
B14 | – | – | – | – | 80
